Test results published in patent CN105542007A (UNIV NANCHANG, dated 2016).

Experiments:
[1] = biological target: T1, 重组表达的PSMA胞外区蛋白 (recombinant extracellular domain of prostate-specific membrane antigen, expressed in HEK-293) (UniProt Q04609 44-750, limits assumed); assay: indirect phage-ELISA, PSMA extracellular domain coated at 5 μg/mL, HRP-anti-M13 detection
T1 construct: extracellular domain; Cloned into pRAG2a via NotI/BamHI, secreted from HEK-293 cells and purified with HisTrap; also called 前列腺特异性膜抗原膜外区; PSMA蛋白; not shown: His tag (purified with HisTrap, detected with anti-His antibody)

[2] = biological target: T2, 前列腺特异性膜抗原 (PSMA) on LNCaP prostate cancer cells (UniProt Q04609 1-750, limits assumed); assay: cell ELISA on fixed LNCaP (PSMA+) against MKN45 (PSMA-) cells, HRP-anti-M13 detection, OD450
T2 construct: whole, on cells; Endogenous PSMA on fixed LNCaP cells; also called LNCaP细胞(表达PSMA)
T2 sequence (Q04609 whole entry): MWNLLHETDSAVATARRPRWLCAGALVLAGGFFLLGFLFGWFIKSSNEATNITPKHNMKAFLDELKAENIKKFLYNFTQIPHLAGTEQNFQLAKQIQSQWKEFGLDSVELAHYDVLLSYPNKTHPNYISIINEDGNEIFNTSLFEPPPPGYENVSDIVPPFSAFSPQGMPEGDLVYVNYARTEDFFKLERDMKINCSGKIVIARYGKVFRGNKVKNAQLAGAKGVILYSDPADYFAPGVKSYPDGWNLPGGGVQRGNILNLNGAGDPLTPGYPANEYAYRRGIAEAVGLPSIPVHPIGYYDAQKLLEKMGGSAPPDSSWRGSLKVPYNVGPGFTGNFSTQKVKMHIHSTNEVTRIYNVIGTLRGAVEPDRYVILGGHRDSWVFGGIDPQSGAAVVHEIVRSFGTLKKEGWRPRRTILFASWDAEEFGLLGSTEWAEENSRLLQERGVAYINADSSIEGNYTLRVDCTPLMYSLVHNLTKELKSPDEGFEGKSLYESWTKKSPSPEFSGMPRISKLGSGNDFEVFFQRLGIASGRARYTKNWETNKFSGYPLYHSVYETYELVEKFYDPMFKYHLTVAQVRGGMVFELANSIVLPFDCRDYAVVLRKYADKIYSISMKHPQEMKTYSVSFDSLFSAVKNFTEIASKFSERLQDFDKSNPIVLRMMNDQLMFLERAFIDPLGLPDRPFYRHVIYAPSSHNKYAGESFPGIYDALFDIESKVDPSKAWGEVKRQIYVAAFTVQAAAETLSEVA

T1 sequence (Q04609 44-750 limits assumed): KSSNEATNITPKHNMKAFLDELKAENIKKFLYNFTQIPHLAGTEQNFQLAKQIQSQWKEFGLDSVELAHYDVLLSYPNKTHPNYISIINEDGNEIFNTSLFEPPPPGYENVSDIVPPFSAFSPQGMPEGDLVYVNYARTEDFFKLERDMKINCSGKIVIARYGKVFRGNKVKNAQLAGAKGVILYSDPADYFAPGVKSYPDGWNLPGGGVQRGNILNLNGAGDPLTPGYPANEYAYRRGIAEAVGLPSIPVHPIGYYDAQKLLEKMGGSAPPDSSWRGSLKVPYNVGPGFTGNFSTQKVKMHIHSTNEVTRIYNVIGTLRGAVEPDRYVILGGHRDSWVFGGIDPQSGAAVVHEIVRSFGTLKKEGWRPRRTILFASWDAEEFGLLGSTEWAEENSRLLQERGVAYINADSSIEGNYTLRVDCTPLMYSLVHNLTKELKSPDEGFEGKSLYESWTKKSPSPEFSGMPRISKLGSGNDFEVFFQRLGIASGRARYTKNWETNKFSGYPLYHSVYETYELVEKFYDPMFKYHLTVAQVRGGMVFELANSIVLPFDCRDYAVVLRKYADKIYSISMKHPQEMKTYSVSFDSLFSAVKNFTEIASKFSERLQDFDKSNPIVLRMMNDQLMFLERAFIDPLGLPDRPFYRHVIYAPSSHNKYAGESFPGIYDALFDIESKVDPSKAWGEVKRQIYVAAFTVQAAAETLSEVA

B1: 抗前列腺特异性膜抗原单域重链抗体噬菌体阳性克隆 (phage clone displaying the anti-PSMA single-domain heavy-chain antibody of SEQ ID NO: 1) (VHH)
VHH: QLQLVESGGGLVQAGGSLRLSCAASGRTFSRYAVGWFRQAPGKEREFVSGLSWTGSSTLYADSVKGRFTFSRDNAKKMVYLQMNTLMPEDTAVYYCAARKTRGKSYEYWGQGTQVTVSS
notes: VHH selected from a naive camelid phage display library; It was tested as a phage particle and detected with anti-M13 antibody, not as a purified protein; also called 针对前列腺特异性膜抗原的单域重链抗体阳性克隆; 展示本发明所述纳米抗体的噬菌体克隆; not shown: the phage coat protein fusion and any linker or tag are not described
binding result [1]: binds | binding result [2]: binds
